# Measured values published in the supplement of paper PMC7877785.
# ± gives the uncertainty stated by the source.
# Assay: self-splicing fitness, log relative to wild type (ln ratio); higher = more splicing; Tetrahymena group I intron in knt gene, E. coli kanamycin selection, DiMSum; sequences stand for … in CUCUCU…GGAGGGAAAAGUUAUCAGGCAUGCACCUGGUAGCUAGUCUUUAAACCAAUAGAUUGCAUCGGUUUAAAAGGCAAGACCGUCAAAUUGCGGGAAAGGGGUCAACAGCCGUUCAGUACCAAGUCUCAGGGGAAACUUUGAGAUGGCCUUGCAAAGGGUAUGGUAAUAAGCUGACGGACAUGGUCCUAACCACGCAGCCAAGUCCUAAGUCAACAGAUCUUCUGUUGAUAUGGAUGCAGUUCACAGACUAAAUGUCGGUCGGGGAAGAUGUAUUCUUCUCAUAAGAUAUAGUCGGACCUCUCCUUAAUGGGAGCUAGCGGAUGAAGUGAUGCAACACUGGAGCCGCUGGGAACUAAUUUGUAUGCGAAAGUAUAUUGAUUAGUUUUGGAGUACUCGUGGUCG
# How it was run: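 Six replicate transformations of E. coli BL21(DE3) with a pET-22b(+) library were grown overnight at 37°C or 30°C. The library randomised all eight P1ex-region intron nucleotides, the intron lying in the knt kanamycin-resistance gene, and plates were LB agar with or without 25 μg/mL kanamycin plus 100 μg/mL carbenicillin, 50 μM IPTG and 0.2% rhamnose. Pooled colonies were amplicon-sequenced on an Illumina HiSeq 2500, and fitness is the DiMSum error-weighted combination of wild-type-normalised replicate fold changes, kanamycin versus none.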
Sequence,self-splicing fitness (ln) (30 °C),self-splicing fitness (ln) (37 °C)
AUUGAGCAAUAUUACGAACG,-2.34 ± 0.18,-0.91 ± 0.3
AUUGAGCAAUAUUACGAGAG,–,-2.66 ± 0.29
AUUGAGCAAUAUUACGAUCC,-1.32 ± 0.4,–
AUUGAGCAAUAUUACGCAGG,-3.68 ± 0.29,-2.72 ± 0.27
AUUGAGCAAUAUUACGCCUG,-2.27 ± 0.33,–
AUUGAGCAAUAUUACGCGAG,-1.83 ± 0.13,-0.958 ± 0.14
AUUGAGCAAUAUUACGCGGC,-3.26 ± 0.38,–
AUUGAGCAAUAUUACGCUAU,-3.5 ± 0.44,-2.12 ± 0.42
AUUGAGCAAUAUUACGCUUU,-2.92 ± 0.24,-1.29 ± 0.26
AUUGAGCAAUAUUACGGACC,-3.26 ± 0.48,–
AUUGAGCAAUAUUACGGUCU,-2.72 ± 0.15,-2.56 ± 0.25
AUUGAGCAAUAUUACGGUUA,-3.06 ± 0.29,-2.57 ± 0.22
AUUGAGCAAUAUUACGUACC,–,-1.17 ± 0.46
AUUGAGCAAUAUUACGUCUU,-1.39 ± 0.12,-0.607 ± 0.14
AUUGAGCAAUAUUACGUGUG,-2.38 ± 0.11,-2.41 ± 0.16
AUUGAGCAAUAUUACGUUUA,-2.83 ± 0.19,-2.98 ± 0.27
AUUUAGCAAUAUUACGAACC,-2.12 ± 0.19,-0.169 ± 0.21
AUUUAGCAAUAUUACGACCA,-0.901 ± 0.19,-0.373 ± 0.23
AUUUAGCAAUAUUACGAGGU,-3.21 ± 0.39,-1.91 ± 0.42
AUUUAGCAAUAUUACGCACU,0.177 ± 0.13,0.474 ± 0.16
AUUUAGCAAUAUUACGCAGC,-2.71 ± 0.35,-1.68 ± 0.43
AUUUAGCAAUAUUACGCCAG,-2.27 ± 0.27,–
AUUUAGCAAUAUUACGCGCU,-0.923 ± 0.18,-0.889 ± 0.15
AUUUAGCAAUAUUACGGAUC,-2.84 ± 0.22,-0.766 ± 0.19
AUUUAGCAAUAUUACGGAUU,-2.1 ± 0.21,-0.519 ± 0.2

Sequence,self-splicing fitness (ln) (30 °C),self-splicing fitness (ln) (37 °C)
AUUUAGCAAUAUUACGGCCC,-1.06 ± 0.2,-0.289 ± 0.3
AUUUAGCAAUAUUACGGCGG,-2.31 ± 0.17,-0.525 ± 0.17
AUUUAGCAAUAUUACGGGUU,–,-0.906 ± 0.21
AUUUAGCAAUAUUACGGUCC,-2.72 ± 0.17,-0.126 ± 0.15
AUUUAGCAAUAUUACGGUGG,-3.55 ± 0.31,-3.1 ± 0.27
AUUUAGCAAUAUUACGGUUC,–,-3.23 ± 0.43
AUUUAGCAAUAUUACGUUAA,-2.52 ± 0.27,-2.56 ± 0.34
AUUUAGCAAUAUUACGUUCA,-0.355 ± 0.17,-0.395 ± 0.18
AUUUAGCAAUAUUACGUUCC,-1.54 ± 0.26,-1.23 ± 0.49
CAAAAGCAAUAUUACGACCG,-0.0202 ± 0.1,-0.497 ± 0.13
CAAAAGCAAUAUUACGAGAG,-2.79 ± 0.1,-2.34 ± 0.11
CAAAAGCAAUAUUACGAUGG,-0.431 ± 0.062,-0.139 ± 0.079
CAAAAGCAAUAUUACGAUGU,-2.32 ± 0.075,-1.66 ± 0.11
CAAAAGCAAUAUUACGCUAU,-2.78 ± 0.16,-2.09 ± 0.19
CAAAAGCAAUAUUACGCUUA,-3.17 ± 0.23,-2.17 ± 0.15
CAAAAGCAAUAUUACGCUUG,-3.3 ± 0.15,-2.35 ± 0.19
CAAAAGCAAUAUUACGGACG,-0.163 ± 0.059,0.223 ± 0.079
CAAAAGCAAUAUUACGGAUG,-2.76 ± 0.11,-1.4 ± 0.14
CAAAAGCAAUAUUACGGCGU,-1.23 ± 0.069,-0.3 ± 0.086
CAAAAGCAAUAUUACGGUCA,-1.83 ± 0.13,0.0762 ± 0.1
CAAAAGCAAUAUUACGUAAC,-3.75 ± 0.18,-2.62 ± 0.3
CAAAAGCAAUAUUACGUACA,-1.91 ± 0.1,-1.54 ± 0.13
CAAAAGCAAUAUUACGUAGG,-0.97 ± 0.057,0.00194 ± 0.083
CAAAAGCAAUAUUACGUCAG,-0.464 ± 0.062,-0.392 ± 0.075
CAACAGCAAUAUUACGAAGU,–,-1.78 ± 0.16

Sequence,self-splicing fitness (ln) (30 °C),self-splicing fitness (ln) (37 °C)
CAACAGCAAUAUUACGACCG,0.0339 ± 0.079,-0.239 ± 0.081
CAACAGCAAUAUUACGACGA,-0.955 ± 0.075,0.0703 ± 0.084
CAACAGCAAUAUUACGAGUC,-3.58 ± 0.2,-2.58 ± 0.26
CAACAGCAAUAUUACGAUCG,-0.183 ± 0.052,0.463 ± 0.069
CAACAGCAAUAUUACGAUUC,-0.966 ± 0.087,-0.733 ± 0.11
CAACAGCAAUAUUACGCAGG,-2.19 ± 0.11,-0.807 ± 0.085
CAACAGCAAUAUUACGCCCU,-1.96 ± 0.086,-1.24 ± 0.1
CAACAGCAAUAUUACGCCGG,-0.647 ± 0.062,0.147 ± 0.087
CAACAGCAAUAUUACGCCUC,-3.85 ± 0.29,-1.81 ± 0.18
CAACAGCAAUAUUACGCGUU,-3.77 ± 0.14,-1.62 ± 0.08
CAACAGCAAUAUUACGCUGG,-3.71 ± 0.18,-2.01 ± 0.16
CAACAGCAAUAUUACGCUUG,-2.71 ± 0.12,-1.82 ± 0.14
CAACAGCAAUAUUACGGAAA,-3.2 ± 0.17,-2.27 ± 0.18
CAACAGCAAUAUUACGGACA,-1.81 ± 0.1,-0.798 ± 0.097
CAACAGCAAUAUUACGGACG,-0.191 ± 0.063,0.505 ± 0.082
CAACAGCAAUAUUACGGAUG,-2.53 ± 0.074,-0.732 ± 0.068
CAACAGCAAUAUUACGGGAU,-3.7 ± 0.15,-2.08 ± 0.15
CAACAGCAAUAUUACGGGUC,-4.17 ± 0.17,-2.66 ± 0.14
CAACAGCAAUAUUACGGUCU,-3.01 ± 0.11,-2.07 ± 0.095
CAACAGCAAUAUUACGGUGC,-3.12 ± 0.12,-2.8 ± 0.16
CAACAGCAAUAUUACGUAAC,-3.71 ± 0.23,-2.41 ± 0.24
CAACAGCAAUAUUACGUAAG,-0.309 ± 0.044,0.376 ± 0.055
CAACAGCAAUAUUACGUAAU,-2.46 ± 0.08,-2 ± 0.12
CAACAGCAAUAUUACGUAUU,-3.48 ± 0.17,-1.58 ± 0.11
CAACAGCAAUAUUACGUCUC,-2.24 ± 0.074,-0.669 ± 0.081

Sequence,self-splicing fitness (ln) (30 °C),self-splicing fitness (ln) (37 °C)
CAACAGCAAUAUUACGUCUG,-1.89 ± 0.062,-1.38 ± 0.063
CAACAGCAAUAUUACGUGAU,-2.64 ± 0.075,-2.19 ± 0.1
CAACAGCAAUAUUACGUGGA,-3.08 ± 0.13,-2.08 ± 0.096
CAACAGCAAUAUUACGUGGC,-3.17 ± 0.12,-2.81 ± 0.16
CAACAGCAAUAUUACGUUGA,-3.22 ± 0.12,-3.19 ± 0.15
CAAGAGCAAUAUUACGAAAA,–,-2.78 ± 0.38
CAAGAGCAAUAUUACGACAG,-0.511 ± 0.08,0.045 ± 0.11
CAAGAGCAAUAUUACGAUCG,-0.79 ± 0.071,0.562 ± 0.1
CAAGAGCAAUAUUACGCACG,-1.96 ± 0.11,-0.942 ± 0.12
CAAGAGCAAUAUUACGCAUC,-3.5 ± 0.29,-0.397 ± 0.39
CAAGAGCAAUAUUACGCCCU,-2.51 ± 0.49,-2.72 ± 0.44
CAAGAGCAAUAUUACGCGUA,-2.2 ± 0.27,-1.95 ± 0.25
CAAGAGCAAUAUUACGGAAU,-3.66 ± 0.26,-2.42 ± 0.23
CAAGAGCAAUAUUACGGACA,-3.46 ± 0.26,-2 ± 0.32
CAAGAGCAAUAUUACGGCGC,-3.56 ± 0.27,-2.17 ± 0.26
CAAGAGCAAUAUUACGGGAU,-2.97 ± 0.17,-2.59 ± 0.31
CAAGAGCAAUAUUACGGGUA,-3.26 ± 0.4,-1.64 ± 0.28
CAAGAGCAAUAUUACGGUGG,-2 ± 0.082,-1.58 ± 0.11
CAAGAGCAAUAUUACGGUUU,-3.5 ± 0.18,-2.33 ± 0.2
CAAGAGCAAUAUUACGUAGG,-1.4 ± 0.069,-1.06 ± 0.1
CAAGAGCAAUAUUACGUCUU,-3.62 ± 0.25,-1.46 ± 0.11
CAAGAGCAAUAUUACGUGUU,-3.47 ± 0.15,-3.58 ± 0.26
CAAGAGCAAUAUUACGUUUU,-3.35 ± 0.16,-2.29 ± 0.15
CAAUAGCAAUAUUACGAAAA,-2.39 ± 0.34,–
